B1: Chitinase 19F (SEQ ID NO: 182): Streptomyces coelicolor Chitinase F (Chi19F) (protein)
chain: ASCSSYHAWSADANYNTGDIVRYTDGKAYIAEHANPGYDPLISTWYWDPYACDGGSQTPVGNFVVSEAQFNQMFPGRNSFYTYSGLTAALSAYPGFANTGSDTTKKQEAAAFLANVSHETGGLVYIVEQNTANYPHYCDWNQPYGCPAGQAAYYGRGPIQLSWNFNYKAAGDALGIDLLGNPWLVQNDAAVAWKTGLWYWNTQSGPGTMTPHNAMVNGAGFGQTIRSINGSLECDGKNPAQVQSRVTKYQQFAQILGVSPGGNLYC
modifications: Chitinase F (Chi19F); Streptomyces coelicolor
B2: Esterase B (SEQ ID NO: 89): Bacillus subtilis Esterase (EstB without signal sequence) (protein, listed as Bacillus subtilis)
chain: ESVHNPVVLVHGISGASYNFFAIKNYLISQGWQSNKLYAIDFYDKTGNNLNNGPQLASYVDRVLKETGAKKVDIVAHSMGGANTLYYIKYLGGGNKIQNVVTLGGANGLVSSTALPGTDPNQKILYTSIYSLNDQIVINSLSRLQGARNIQLYGIGHIGLLSNSQVNGYIKEGLNGGGLNTN
modifications: Esterase (EstB H191 without signal sequence)

What was measured:
[1] = tested on: Btk resistant Diamondback moth; experiment: Diet-surface overlay (DSO) bioassay on Btk resistant Diamondback moth; format: in vivo, Plutella xylostella; conditions: number of individuals, n = 32, 7 days
Method: Diet-surface overlay bioassays are conducted with artificial diet mixes without antibiotics in 1.5 cm^2 cell bioassay trays(s). Artificial diets are commercially available from Southland Products Inc. Diets were prepared by dispersing 0.5 mL of molten diet to each 1.5 cm^2 cell. After solidification, 0.1 mL enzyme treatments were dispersed on top of diet in each cell and the tray was gently rocked in an orbital shaker to spread the liquid uniformly over the diet surface. Trays were placed under clean airflow until the surface of each cell was uniformly dried. One or two 16-cell sections were used per treatment (the number in larvae treated was 16 or 32).
One healthy first instar larva was placed into each treatment cell, each 16-cell section was covered with a re-sealable lid and incubated at 27° C. and light-dark period of 16:8 hrs. After 7 days, and according to the species, the number of individuals in the following developmental categories was recorded.
Diamondback moth (Plutella xylostella): Dead Larva (lack of movement), Larva Stage I (≤50% relative size), Larva Stage II (100% relative size, full size), Early Pupa (light green color), Late Pupa (light-dark brown color), and Adult.
Negative/untreated controls were treated with filtered water and positive controls were treated with lethal doses of Bacillus thuringiensis subsp. Kurstaki (Btk) spores at 1000 ppm.
However, both neutral proteases reduced the number of individuals reaching adult stage.
The effect of lipase (10× enzyme rate) and free lipases were tested on a Diamondback Moth Btk resistant strain. Free Lipases from Burkholderia cepacia (Bc) and Pseudomonas fluorescens (Pf) were tested along with Lipase (SEQ ID NO: 76) and the results are shown below in Table 45.

SCN nematodes = experiment: Nematode death after foliar spray application on strawberry leaf segments; format: in vivo, Heterodera glycines; conditions: 0.6% solution of fermentation broth sprayed on strawberry leaf segments; 20 wells; water only 5%
Method: To determine whether a nematicidal enzyme can cause nematode death when sprayed as a foliar treatment, a trial was performed using chitinase 19F (SEQ ID NO: 182). The free enzyme was produced as described in Example 2. A SCN hatchery was set up as described in Example 2, except that no bleach sterilization step was performed. Six days later, the concentration of hatched nematodes was determined. Leaves from Quinault strawberry plants (Fragaria x ananassa) were cut into square sections and placed in the wells of a 24-well plate with the abaxial side up. […] Spray solutions were created with water alone and water plus fermentation broth with chitinase 19F (SEQ ID NO: 182). For the base strain control and chitinase solutions, 0.094 mL of fermentation broth was added to 15 mL of water (0.6% solution) to model a field spray application of 8 fl oz. per acre. Treatments were added to a small spray bottle and each leaf segment was sprayed approximately 3 times. After the leaves had dried, approximately 100 nematodes were added to each leaf segment. To assess the number of nematodes that were alive at the start of the experiment hours, 500 μL of sterile water was added to 4 wells of each treatment, and the leaf segment was washed and removed. The number of alive and dead nematodes were counted for each well, and the average percentage of dead nematodes were calculated for each treatment. […]

Steinernema feltiae = experiment: In-vitro plate assay of Steinernema feltiae juvenile death after direct treatment; format: in vivo; conditions: Table 23, 40 μL per well (ILEVO 20 μL), water control 3%
Method: To determine the effects of enzymes on an additional soil-dwelling nematode species (Steinernema feltiae), a NemAttack™ package containing approximately 5 million S. feltiae juveniles was purchased from ARBICO Organics. The nematodes arrived already hatched and dispersed within a powder. To prepare the nematodes for use, an aliquot of the dry nematode mixture was rehydrated in water. The liquid nematode mixture was adjusted to a concentration of 20-30 nematode juveniles per 10 μL. The free enzymes Esterase B (SEQ ID NO: 89) and Chitinase 19F (SEQ ID NO: 182) were produced as described in Example 2.
Potato dextrose agar media containing chloramphenicol and chlortetracycline was prepared and added to sterile twenty-four-well cell culture plates (1 mL per well). The plates were divided according to the pre-determined N-value for each treatment (N=12-24). […]
To quantify the treatments' effects on nematode viability, the nematodes were examined under a dissecting microscope at 20× magnification. Initial (T0) values for the number of live juveniles, number of dead juveniles and total number of juveniles were recorded immediately after preparation of each well. […] Approximately 20-22 hours post addition of juveniles, the plates were evaluated, and the number of live juveniles, dead juveniles and total number of juveniles were recorded. […]

Row | Molecule | Dead Larva ([1]; Table 47, chitinases, rate in mU/mL diet column) | Adult ([1]; Table 47) | Early Pupa ([1]; Table 47) | Larva Stage I ([1]; Table 47) | Larva Stage II ([1]; Table 47) | Late Pupa ([1]; Table 47) | Average percentage of dead nematodes at 24 hours (SCN nematodes) | Difference in Percent Death of Nematodes for 0 to 20 Hours (Steinernema feltiae) | Difference in Percent Death of Nematodes for 0 to 20 Hours (Steinernema feltiae; listed as Esterase B(SEQ ID NO: 89))
1 | B1 | 2 | 1 | 4 | 2 | 1 | 22 | increased significantly above the control treatments |  | 
2 | B2 |  |  |  |  |  |  |  | significantly increased the difference in percentage of S. feltiae juveniles that died | 33%
